Experimental data from US10233241B2 (priority 2014, dated 2019).
Substitutions are numbered along the chain they refer to.

B1: XA8635: Mor1-specific VHH, SEQ ID NO: 5, Profile II, binds extracellular part and orthosteric pocket (protein, listed as Lama glama)
VHH: QVQLVESGGGLVQAGGSLRLSCAASGSISSISTMGWYRQAPGNERELVAAITSGGSTNYADSVKGRFTISRDNAKNTVYLQMNSLKPEDTAVYYCNFKYYSGSYFYKSEYDYWGQGTQVTVSSAAAHHHHHHGAAEQKLISEEDLNGAA
B2: XA8727: Mor1-specific VHH, SEQ ID NO: 6, Profile III, intracellular binder (protein, listed as Lama glama)
VHH: QVQLVESGGGLVQAGGSLRLSCAASGFTFDDYAIAWFRQAPGKEREGVSCISSSDGSTYYADSVKGRFTISNDNAKNTVYLQMNSLKPEDTAVYYCAADLSRSCGRGYRYLEVWGQGTQVTVSSAAAHHHHHHGAAEQKLISEEDLNGAA
B3: XA9644: Profile III VHH of a new sequence family, SEQ ID NO: 74 (protein, listed as Lama glama)
VHH: QVQLVESGGGLVRPGGSLRLSCVDSERIFSISAMGWYRQAPGKQRELVATITSGGTTNYADSVKGRFTISGDTAKNMVYLQMSSLKPEDTAVYYCAADMEVWDYTDGDDDDYWGQGTQVTVSSAAAHHHHHHGAAEQKLISEEDLNGAA
B4: bivalent XA8635: genetic head to tail fusion of XA8635, separated by a 9GS linker, SEQ ID NO: 49 (protein)
chain: QVQLVESGGGLVQAGGSLRLSCAASGSISSISTMGWYRQAPGNERELVAAITSGGSTNYADSVKGRFTISRDNAKNTVYLQMNSLKPEDTAVYYCNFKYYSGSYFYKSEYDYWGQGTQVTVSSGGGGSGGGSQVQLQESGGGLVQAGGSLRLSCAASGSISSISTMGWYRQAPGNERELVAAITSGGSTNYADSVKGRFTISRDNAKNTVYLQMNSLKPEDTAVYYCNFKYYSGSYFYKSEYDYWGQGTQVTVSSAAAEQKLISEEDLNGAAHHHHHH
B5: XA8633: Mor1-specific VHH, SEQ ID NO: 1, Profile I, candidate G-protein mimicking, active state stabilizing (protein, listed as Lama glama)
VHH: QVQLVESGGGLVRPGGSRRLSCVDSERTSYPMGWFRRAPGKEREFVASITWSGIDPTYADSVADRFTISRDVANNTLYLQMNSLKHEDTAVYYCAARAPVGQSSSPYDYDYWGQGTQVTVSSAAAHHHHHHGAAEQKLISEEDLNGAA
B6: XA8639: Mor1-specific VHH, SEQ ID NO: 2, Profile I, G-protein mimetic (protein, listed as Lama glama)
VHH: B5 VHH with R18L, I68T
B7: XA8641: Mor1-specific VHH, SEQ ID NO: 3, Profile I (protein, listed as Lama glama)
VHH: B5 VHH with R18L, E26G
B8: XA8643: Mor1-specific VHH, SEQ ID NO: 4, Profile I (protein, listed as Lama glama)
VHH: B5 VHH with R18L

What was measured:
[1] = system: β-arrestin1 or β-arrestin2; conditions: cell culture assays; cited from earlier work
[2] = system: inflammatory pain model in rat; conditions: cited from earlier work
Mor1 [3] = target: T1, Mor1 (Mus musculus, UniProt P42866); assay: Affinity of XA8635 for ligand-free Mor1; conditions: read-out: Ki of binding to the receptor
human Mor1 = target: T2, human Mor1 (Homo sapiens, UniProt P35372); assay: Flow cytometry binding of mono- and bivalent XA8635 to Mor overexpressing CHO cells; conditions: for Binding to Mor overexpressing CHO cells vs parental non-transfected CHO cells: absence of any Mor1 ligand
T2 construct: expressed in transfected cells; host or cells: CHO cells

truncDelta mMor1 = target: T3, truncDelta mMor1 (Mus musculus, UniProt P42866); assay: ELISA of VHH binding to truncDelta mMor1 reconstituted in liposomes; conditions: periplasmic extracts, 10 μM Dmt1-Dalda
T3 construct: N- and C-termini are removed by enzymatic proteolysis, resulting in truncDelta mMor1; TEV cleavage site ENLYFQ (after G51 of P42866) (internal); made in house; host or cells: Sf9 insect cells (baculovirus); purified and reconstituted into lipid vesicles

Delta mMor1 [4] = target: T4, Delta mMor1 (Mus musculus, UniProt P42866, INS358LEVLFQGP/INS51ENLYFQ); assay: Radioligand displacement by XA8635 on Delta mMor1/Sf9 membranes; assay type: binding; conditions: 7 μg Delta mMor1/Sf9 membranes, 1 nM radioligand, no agonist
T4 construct: expressed in transfected cells; host or cells: Sf9 insect cells, baculovirus-infected (BestBac)
Description: (§1) A radioligand competition assay was performed as described in Example 6 with minor modifications: 5 μg of WT human hMor1/CHO membranes or 7 μg of Delta mMor1/Sf9 membranes were incubated with a concentration range of purified XA8635 and 1 nM of the radioligand (no agonist was added). The mixture was incubated for 1 hour at RT and after washing, filter bound radioligand was measured.

Delta mMor1 [5] = target: T4, Delta mMor1; assay: Flow cytometry binding of VHHs to Delta mMor1/Sf9 cells with or without Mor1 ligand; conditions: for Side of Mor1 bound (intact versus permeable Sf9 cells, Topro3 gating) / Flow cytometry binding profile on Delta mMor1/Sf9 cells: periplasmic extracts; for Flow cytometry binding profile on Delta mMor1/Sf9 cells: no ligand, 20 μM Dmt1-Dalda or 20 μM naloxone, mock GPCR Sf9 as control
WT human Mor1 = target: T5, WT human Mor1 (Homo sapiens, UniProt P35372); assay: Radioligand displacement by XA8635 on WT human hMor1/CHO membranes; assay type: binding; conditions: 5 μg WT human hMor1/CHO membranes, 1 nM radioligand, no agonist
T5 construct: purchased Perkin Elmer ES-542-M400UA; host or cells: CHO cells overexpressing wild-type human Mor1 (membranes)
Description: as §1

Mor1 [6] = target: T1, Mor1; assay type: binding

T2 sequence (P35372 whole entry): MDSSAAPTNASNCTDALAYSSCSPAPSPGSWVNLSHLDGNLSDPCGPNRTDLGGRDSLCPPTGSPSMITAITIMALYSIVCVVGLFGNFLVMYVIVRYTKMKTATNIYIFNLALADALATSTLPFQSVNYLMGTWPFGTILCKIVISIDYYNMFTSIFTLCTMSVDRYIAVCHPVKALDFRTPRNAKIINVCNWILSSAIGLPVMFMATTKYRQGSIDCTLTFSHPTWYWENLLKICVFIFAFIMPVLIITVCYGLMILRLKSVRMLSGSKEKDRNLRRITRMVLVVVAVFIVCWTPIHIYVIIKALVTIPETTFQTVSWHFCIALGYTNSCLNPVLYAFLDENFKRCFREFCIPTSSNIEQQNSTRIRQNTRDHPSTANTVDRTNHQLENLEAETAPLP
T5 sequence (P35372 whole entry): as above

Molecule | Binding to truncDelta mMor1 liposomes in ELISA (truncDelta mMor1) | Side of Mor1 bound (intact versus permeable Sf9 cells, Topro3 gating) (Delta mMor1 [5]) | Flow cytometry binding profile on Delta mMor1/Sf9 cells (Delta mMor1 [5]) | also measured
COC(=O)[C@@H]1C[C@H](OC(=O)c2ccccc2)C(=O)[C@H]2[C@@]1(C)CC[C@H]1C(=O)O[C@H](c3ccoc3)C[C@]21C [herkinorin] |  |  |  | Recruitment of β-arrestin1 or β-arrestin2 [1]: does not recruit β-arrestin1 or β-arrestin2; Antinociception in morphine-tolerant rats ([2]; morphine-tolerant rats): produces antinociception in morphine-tolerant rats; Formalin-induced flinching ([2]; rat, 10 mg/kg, i.pl., reversed by naloxone): reduces formalin-induced flinching to the same degree as morphine; Antinociceptive tolerance ([2]; repeated treatment over a 5-day period): does not develop
B1 | confirmed to bind Mor1 in ELISA | extracellular part of the receptor | Profile II | Ki (Mor1 [3]): ~12 nM; Binding to Mor overexpressing CHO cells vs parental non-transfected CHO cells (human Mor1): dose-dependent specific binding; Radioligand displacement (Delta mMor1 [4]): dose-dependent increase in radioligand displacement; Fluorescence profile of purified VHH compared to the one obtained with periplasm (Delta mMor1 [5]; 1 μM purified VHH): identical fluorescence profile; Binding to Sf9 cells overexpressing Mor1 in presence of Mor1 ligand (agonist or antagonist) (Delta mMor1 [5]; 1 μM purified VHH, intact and permeable cells): loses its ability to specifically bind; Radioligand displacement (WT human Mor1): dose-dependent increase in radioligand displacement
B2 | confirmed to bind Mor1 in ELISA | intracellular part of Mor1 | Profile III | 
B3 |  |  | Profile III | 
B4 |  |  |  | Increased fluorescence versus monovalent XA8635 (human Mor1; 1 μM): approximately 34%; Binding to Mor overexpressing CHO cells vs parental non-transfected CHO cells (human Mor1): dose-dependent specific binding
B5 | confirmed to bind Mor1 in ELISA | intracellular epitopes | Profile I | Fluorescence profile of purified VHH compared to the one obtained with periplasm (Delta mMor1 [5]; 1 μM purified VHH): identical fluorescence profile
B6 | confirmed to bind Mor1 in ELISA | intracellular epitopes | Profile I | Enhancement of affinity for BU72 (Mor1 [6]): 176 fold
B7 | confirmed to bind Mor1 in ELISA | intracellular epitopes | Profile I | 
B8 | confirmed to bind Mor1 in ELISA | intracellular epitopes | Profile I | 
